Legend:
[1] = test system: PshAI restriction endonuclease (native) (Plesiomonas shigelloides); assay: cleavage_in_vitro; conditions: total activity in Mono Q peak, assayed on lambda DNA
[2] = test system: PshAI restriction endonuclease (recombinant, pPshAIR1, NEB#984) (Plesiomonas shigelloides); assay: cleavage_in_vitro; conditions: crude extract, NEBuffer 2, 30 C, 30 min

lambda DNA showed an activity [1] of 250000 units and an activity (units/g cells) [2] of 1e+07.
